Laboratory results from patent publication US20130287702A1 (CASE WESTERN RESERVE UNIVERSITY, published 2013).
Where no end group is shown, it is not given here.

T1: proteolytically cleaved PTPµ extracellular fragment in tumors of human LN-229 glioma cells (human, UniProt P28827 21-477, limits assumed)
T1 construct: The target is endogenous material deposited in tumor tissue, not a purified protein; also called proteolyzed extracellular fragment of PTPµ; PTPµ fragment
T1 sequence: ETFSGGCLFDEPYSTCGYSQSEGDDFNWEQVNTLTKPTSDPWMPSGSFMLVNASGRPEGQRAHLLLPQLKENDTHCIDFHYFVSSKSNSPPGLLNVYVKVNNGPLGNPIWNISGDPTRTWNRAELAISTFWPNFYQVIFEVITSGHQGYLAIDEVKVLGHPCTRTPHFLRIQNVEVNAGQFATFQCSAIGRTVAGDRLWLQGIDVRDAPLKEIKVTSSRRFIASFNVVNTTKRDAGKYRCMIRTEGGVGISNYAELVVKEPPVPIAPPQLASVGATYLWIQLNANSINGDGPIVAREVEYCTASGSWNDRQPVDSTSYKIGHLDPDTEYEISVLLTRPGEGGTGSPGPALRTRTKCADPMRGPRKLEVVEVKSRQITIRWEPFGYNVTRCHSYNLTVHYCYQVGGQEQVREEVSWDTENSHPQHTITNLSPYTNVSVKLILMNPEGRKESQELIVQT


Key:
[1] = target: T1, proteolytically cleaved PTPµ …; experiment: in vivo labeling of glioma intracranial tumors, Cy5 cryo-imaging
[2] = target: T1, proteolytically cleaved PTPµ …; experiment: fluorescent probe labeling of fixed LN-229-GFP flank tumor sections
Excerpt: The sections were rinsed with phosphate-buffered saline, coverslipped with Citifluor Antifadent Mounting Medium (Electron Microscopy Sciences), and imaged immediately at ×20 magnification on a Leica DMI 6000 B inverted microscope (Leica Microsystems GmbH, Wetzlar, Germany) using a Retiga EXi camera (QImaging, Surrey, BC) and Metamorph software (MolecularDevices, Downington, Pa.). Images were acquired across the entire tissue using bright-field and fluorescence optics for fluorescein (GFP) and Texas Red (probe). The resultant images were tiled and flattened to form a single composite image using Metamorph software.
Zoomed MR and corresponding heat map images for the tumor are shown (FIG. 15A). […] The corresponding flank tumor sections were incubated with SBK2-Texas Red or scrambled Texas Red probes. SBK2-Texas Red labeled the entire tumor with greatest intensity in the tumor center (FIG. 15B). This pattern is similar to that observed in the MR images following labeling with the SBK2-Tris-(Gd-DOTA)₃ probe. […] Anti-human vimentin antibody was used to label all the human cells in the mouse flank. […] Similar gradients of PTPμ extracellular fragment, as detected by the SBK2 probe, have been observed previously.

binding result [1] | binding result [2] | Binder
no binding | – | GFTQPETGTDNDLWSVDNEK (not fully specified (N-terminus), Same uncertainty about the added N-terminal glycine as for SBK2-Cy5; also called scrambled probe; scrambled version of the PTPµ probe) [scrambled-Cy5 probe]
– | no binding (tested: 1 µM) | GFTQPETGTDNDLWSVDNEK (not fully specified (N-terminus); also: Texas Red label, site not given here) [scrambled Texas Red probe]
